Experiments:
mCCRL2 [1] = molecular target: T1, mCCRL2 (Mus musculus, UniProt O35457); assay: immunofluorescence-based chemerin-binding assay, mCCRL2-HA L1.2; details: read-out: EC50, untagged chemerin vs His8-tagged chemerin binding; 10 nM His8-tagged serum form chemerin, 30 min on ice, anti-His6 PE
T1 construct: The coding regions of mCCRL2, huCCRL2, mCRTH2, and huCCR10 were amplified from genomic DNA; expressed in transfected cells
T1 sequence (O35457 1-360): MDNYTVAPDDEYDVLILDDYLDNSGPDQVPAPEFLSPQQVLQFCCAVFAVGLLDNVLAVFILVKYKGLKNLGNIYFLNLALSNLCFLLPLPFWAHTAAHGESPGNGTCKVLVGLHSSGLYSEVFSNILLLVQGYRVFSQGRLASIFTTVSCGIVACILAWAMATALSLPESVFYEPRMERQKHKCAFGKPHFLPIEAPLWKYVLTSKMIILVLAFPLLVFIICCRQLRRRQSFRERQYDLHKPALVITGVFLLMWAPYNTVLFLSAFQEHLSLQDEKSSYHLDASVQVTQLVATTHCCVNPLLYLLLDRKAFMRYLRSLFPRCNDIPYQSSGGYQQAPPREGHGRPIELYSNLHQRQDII

CCRL2 = molecular target: T2, CCRL2 (Mus musculus, UniProt O35457); assay: radiolabeled chemerin binding to TNFα-treated bEND3 cells; details: cells treated 24 hours with 20 ng/ml TNFα
T2 construct: TNFα-treated bEND3 cells acquire CCRL2 surface protein (but not CMKLR1 expression); endogenous in cells; host or cells: bEND3 mouse brain endothelioma cells treated 24 h with 20 ng/ml TNFα
T2 sequence (O35457 1-360): T1 sequence (O35457 1-360)
From the text: FIG. 22. […] Panel A. Robust upregulation of CCRL2 RNA by microarray analysis (Affymetrix®). Panel B. TNFα-treated bEND3 cells acquire CCRL2 surface protein (but not CMKLR1 expression) as determined by mAb staining and flow cytometry. Panel C. […] CCRL2/L1.2 and empty vector pcDNA3/L1.2 transfectants are shown as controls. The mean+/−SD of triplicate wells is shown for an individual experiment. A representative data set of 2 performed with similar results is shown for parts B and C, and n=1 for part A.
The cells were washed in PBS and stained with secondary anti-rat IgG PE or anti-mouse IgE PE (+goat IgG) for 30 min on ice, washed with PBS, stained with directly conjugated F4/80 and c-kit mAbs, and analyzed by flow cytometry. […] For competition binding assays, L1.2 cells transfected with huCCRL2, mCCRL2, or mCMKLR1 were plated into 96-well plates at 0.5×10^6 cells/well. […]. For saturation binding assays, mCCRL2/L1.2 cells were plated at 0.5×10^6 cells/well. […] Binding was terminated by washing the cells in saline buffer, and bound radioactivity was measured. Data were analyzed using Prism (GraphPad Software). Binding data (triplicate or quadruplicate wells) were fitted to one-site binding hyperbola for saturation assays, or to a one-site competition curve for competition assays. […] […].

[2] = system: mouse peritoneal mast cells; assay: intracellular calcium mobilization, freshly isolated peritoneal mast cells; type: cell-based; details: 1000 nM chemerin, 100 nM ATP
Experimental: Chemoattractant-stimulated Ca^2+-mobilization was performed following Alliance for Cell Signaling protocol ID PP00000210. Cells (3×10^6/mL) were loaded with 4 μM Fluo4-AM and 0.16% Pluronic acid F-127 (Molecular Probes) in modified Iscove's medium (Iscove's medium with 1% heat inactivated bovine calf serum and 2 mM L-glutamine, Invitrogen) for 30 minutes at 37° C. The samples were mixed every 10 minutes during loading, washed once, resuspended at up to 2×10^6/mL in the same buffer, and allowed to rest in the dark for 30 minutes at room temperature. Chemoattractant-stimulated change in Ca^2+-sensitive fluorescence of Fluo-4 was measured over real-time with a FACsScan flow cytometer and CellQuest software (BD Biosciences) at room temperature under constant stirring (500 rpm). Fluorescent data were acquired continuously up to 1024 seconds at 1-second intervals. The samples were analyzed for 45 seconds to establish basal state, removed from the nozzle to add the stimuli, and then returned to the nozzle. Mean channel fluorescence over time was analyzed with FlowJo (TreeStar, Ashland, Oreg., USA) software. […] 500 μl of these chemerin-loaded cells were added to mCMKLR1/L1.2 cells loaded with Fluo4-AM, and calcium mobilization was evaluated.

FcRεI = molecular target: T3, FcRεI (Mus musculus, UniProt P20489); assay: IgE binding to FcRεI on peritoneal mast cells (specificity control); details: 1000 nM chemerin
T3 construct: endogenous in cells; host or cells: mouse peritoneal mast cells
T3 sequence (P20489 24-250): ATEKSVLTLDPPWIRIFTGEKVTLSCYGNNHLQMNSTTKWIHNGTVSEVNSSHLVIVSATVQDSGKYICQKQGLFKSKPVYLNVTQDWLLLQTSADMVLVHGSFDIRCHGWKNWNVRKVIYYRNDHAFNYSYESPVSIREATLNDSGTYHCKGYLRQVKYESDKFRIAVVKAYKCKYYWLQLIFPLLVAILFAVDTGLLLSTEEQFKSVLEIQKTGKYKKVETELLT
T3 sequence (P20490 1-235 partner): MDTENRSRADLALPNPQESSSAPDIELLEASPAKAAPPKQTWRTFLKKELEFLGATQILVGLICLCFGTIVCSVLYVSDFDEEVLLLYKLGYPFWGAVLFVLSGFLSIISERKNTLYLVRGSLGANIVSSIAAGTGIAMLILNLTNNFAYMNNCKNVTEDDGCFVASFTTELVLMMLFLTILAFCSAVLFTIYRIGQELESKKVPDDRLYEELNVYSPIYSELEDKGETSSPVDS
T3 sequence (P20491 19-86 partner): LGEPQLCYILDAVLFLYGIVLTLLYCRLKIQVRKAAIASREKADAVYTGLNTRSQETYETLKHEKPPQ

mCCRL2 [3] = molecular target: T1, mCCRL2; assay: receptor internalization assay, mCCRL2-HA L1.2; type: cell-based; details: 100 nM chemerin, 15 min
Experimental: The cells were then washed with 200 μl PBS and stained with mouse anti-HA (Covance, Inc) or mIgG1 isotype control, followed by staining with secondary anti-mouse IgG1 PE, fixed, and analyzed by flow cytometry.

In the case of “chemerin: protein ligand for signaling receptor CMKLR1; serum form human chemerin expressed in baculovirus-infected insect cells, His8-tag removed”, the EC50 (mCCRL2 [1]) is reported as 45 nM, the “chemerin binding to TNFα-treated bEND3 cells” value (CCRL2) is reported as “bind” and the intracellular calcium mobilization [2] is reported as “did not trigger”. For the same substance, the “binding of IgE to FcRεI” value (FcRεI) was “unaffected” and the ligand-induced receptor internalization (mCCRL2 [3]) was “failed to internalize”.

Source: patent US20100092974A1, “METHODS FOR SCREENING FOR MODULATORS OF CCRL2” (The Board of Trustees of the Leland Stanford Junior …, priority 2008, published 2010)
